Reference: the nanobody polyreactivity screen of Harvey et al. (2022)

Assay: yeast display, Sf9 membrane polyspecificity reagent, FACS + sequencing; frameworks hold sequencing errors
How it was run: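 Nanobodies from a synthetic yeast display library (Saccharomyces cerevisiae BJ5465), induced 36–48 hours with galactose, were stained 1 hour at 4 °C with 10% biotinylated, detergent-solubilized Sf9 membrane reagent, enriched on streptavidin microbeads, then FACS-sorted. Anti-HA (expression) and streptavidin (reagent binding) fluorescence set low and high (top ~1%) gates. Polyreactivity labels come from the gate of origin. Genes were colony-PCR amplified, MiSeq 2 × 250 sequenced and filtered by CDR length.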

Row | Sequence | polyreactivity (PSR sort gate)
1 | QVQLVESGGGLVQAGGSLRLSCAASGITFRRKAMGWYRQAPGKERELVAAISASGTRTYYADSVKGRLTISRDNAKNTVYLQMNSLKPEDTAVYYCATRVTSRSSGFDYWGQGTQVTVSW | high polyreactivity
2 | QVQLVESGGGLVQAGGSLRLSCAASGSIFGYYVMGWDRQAPGKERELVAAITRSGSTYYADSVKGRFTISRDNAKNTVYLQMNSLKPEDTAVYYCAADGSYYWYPHTTYDYWGQGTQVTVSS | low polyreactivity
3 | QVQLVESGGGLVQAGGSLPLSCAASGRTFNFYAMGWYRQAPGKERELVATISGGVSTYYADSVKGPFTISRDNAKITVYLQMNSLKPEDTAVYYCAKDSCYPQWDLDYWGQGTQVTVSS | high polyreactivity
4 | QDQLVESRAGLVQAGGSLRLSCADTGNIFDFNAIGSYRQAPGKERELVAAISQRGTRTYYADSVKGRFTISRDNAKNTVYLQMKSLKPDYTAVYYCNRGGWRQYDSWGQGTQVTVSS | high polyreactivity
5 | QVQLVESGGGLVQAGGSLRLSCAASGSTFWAYAMGWSRQAPGKERELVAAITSGGSTYADSVKGRFTISRDNAKNTVYLQMNSLKPEDTAVYYCAADVYYSGWWFDYWGQGTQVTVSS | high polyreactivity
6 | QVQLVESGGGLVQAGGSLRLSCAASGLIFRFYAMGWYRQAPGKERELVAAISGGGGSTYYADSVKGRFTISRDNAKNTVYFQMNSLKPEDTAVYYCNTVNDKRAYGKMGYWGQGTQVTVSS | high polyreactivity
7 | QEQLQESGGGLGQAGGSLRLSCAASGSISSDVLMGWHRQAPGKERELVAAIGIGANTYYADSVKGRFTISRDNAKNTVYPQMNSLKPEDTAVYYCATGRYSGADNYWGQGTQVTVSS | high polyreactivity
8 | QVQLVESGGGLVQAGGSLRLSCAASGRIFRYYAMGWYRQAPGKERELVAAISKTGGSTYYADSVKGRFTISRDNAKNTVYLQMNSLKPEDTAVYYCAAVGRYSYLSSEGDYWGQGTQVTVSS | high polyreactivity
9 | QVQLVESGGGLVQAGGSLRLSCAASGRIFKYYAMGWYRQAPGKERELVAAISRGGSTYYADSVKGRFTISRDNAKNTVYLQMNSLKPEDTAVYYCNRLSNNREYDYWGQGTQVTVSS | high polyreactivity
10 | QVQLVESGGGLVQAGGSLRLSCAASGSIFSGYTMGWYRQAPGKERELVAAISSDGSTTYADSVKGRFTISRDNAKNTVYLQMNSLNPEDTADYYCAAYPYWEGSYGGYDYWGQGTEVTVSS | low polyreactivity
11 | QVQLVESGGGVVQAGGSLRLSCAASGLIFAYAMGWYSPAPGKERELVAVISWSGGSTYYADSVKGRFTISRDNAKNTVYLQMNSLKPEDTAVYYCAADYFGNWQLAGGYWGQGTQVTVSS | low polyreactivity
12 | QVQLVESGVRVVQAGGSLRLRCAASGFTFRDYTMGWYRQAPGKERELVAAISRSGGSTYYADSVKGRFTISRDNAKNTVDLQMNSLKPEDTAVYYCAALWHAVSYADYDYWGQGTQVTVSS | high polyreactivity
13 | QVQLVESGGGLVQAGGSLRLSCAASGTFYYAMGWYRQAPGKEREFVAAISWRGGTTYYADSVKGRFTMSRDNAKNTVYLQMNSLKPEDTAVYYCATAPYVTSRRYGPYEYWGQGTQVTVSS | low polyreactivity
14 | QVQLVESGGGLVQAGGSLRLSCAASGRTFDDNAMGWYRQAPGKERELVASISSGTSTNYADSVKGRFTISRDNAKNTVYVQMNCLKPEDTAVYYCNAYGPIWYTAVLGVGRYYGWTDYWGQGTQVTVSS | low polyreactivity
15 | QVQLVESGGGLVQAGGSLRLSCAASGSIFTPNVMGWYRHAPGKERELVAAISQSGGSTFYADSVKGRFTISRDNAKNTVYLQMNSLKPEDTAVYYCNVDDNSEYDYWGQGSQVTVSS | low polyreactivity
16 | QVQLVESGGGLVQAGGSLRLSCAASGRISLHNTIGWYRQAPGKERELVAAINYSGGSTYYADTVKGRFTISRDNAKNTVYLQMNSLKPEDTEVYYCAADFYQSHFYRPRYDYWGQGTQVTVSS | low polyreactivity
17 | QVQLVEAGGGLVQAGGTLRLSCAASGYTFIYYAMGWYRQAPGKERELVATISIDGSTNYADSVKRRFTISRDNAKNTVYLQMNSLKPEDTAVYYCNRERYEDYDYWGQGTQVTVSS | high polyreactivity

Row | Sequence | polyreactivity (PSR sort gate)
18 | QVQLVESGGGLVQAGGSLRLSCAASGSIFYGNAMGWYRQAPGKERELVASITYSGGTTNYADSVKGRFTISRDNAKNTVYLQMNCLKPEDTAVYYCNADIYPDRYGSTNYDFNYWGQGTQVTVSS | low polyreactivity
19 | QVQLVESGGGLVQAGGSLRLSCAASGITFYVYAMGWYRQAPGKERELVAAISSGSSTYYSDSVKGRFTISRDNAKNTVYLQMNSLKPEDTAVYYCAARYRKYLSEYWGQGTQVTVSS | high polyreactivity
20 | QVQLVETGGGLVQAGGSLRLSCAASGFTFIDYTMGWYRQAPGKERELVARITDTGSTNYEDSVKGRFTISRDT | low polyreactivity
21 | QVQLVDSGGGLVQAGGSLRLSCAASGYTFDRYAMGWYRQAPGKERELVAAISVRGGRTHYADSVKGRFTISRDNAKNTVYLQMNSLKPEDTAVYYCNKDSKGGYSVPHDYWGQGTQVTVSS | low polyreactivity
22 | QVQLVESGGGLVQAGGSLRLSCAASGITFGRNTMGWYRQAPGKERELVAAIDSGGNTYADSVKGRFTISRDNAKNTVYLQMNSLKPEDTAVYYCAAVVYAYLYADYDYWGQGTQVTVSS | low polyreactivity
23 | QVQLVESGGGLVQAGGSLRLSCAASGFTITTYAMGWYRQAPGKERELVAVISVSGGRTYYADSVKGRFTISRDNAKNTVYLQMNSLKPEDTAVYYCAAEYYPGWEYGYWGQGTQVTVSS | high polyreactivity
24 | QVQLVESAGGLVQAGGSRRLSCAASGRNFPFYAMGWYRQAPGKERELVATISSGDRTNYAVSVKGRFTISRDNAKNTVYLQMNSLKPEDTAVYYCAADFAVKYRKRVRRYSWGHGTQVTVSS | low polyreactivity
25 | QVQLVESGGGLVQAGGSLRLSCAASGSIFPTNAMGWYRQAPGKERELVAAITSGGGTNYADSVMGRFTISRDNAKNTVYLQMNSLKTEDTAVYYCAADRYVEYGYWGQGTQVTVSS | low polyreactivity
26 | QVQHVDSGGGLVQAGGSLSLSCAASGSIFWPNTMGWYRQARGKERELVATISSGADTSYADSVKGRFTISRDNAKNTVYLQMNSLKPADTAVYYCAIRITVDDDHPRAQTFNYCGQGTQVTVSS | low polyreactivity
27 | QDQLVESGGGLVQAGGSLGLSCAASGITFDLYDMGWYRQAPGKERELVAAITDAHSTYYADSVKGRFTISRDNAKNTVYLQMNSLKPEDTAVYYCAADFFYSVDSGHYDYWGQGTQVTVSS | low polyreactivity
28 | HVQLVDSGGGLVQAGGSLRLSCAASGRTFSHNAMGWYRQAPGKDRELVATITYGAGRTSYADSVKGRFTISRDNAKNTLYLQMNSLKPEDTAVYYCNADYFTYRGGEYRRYEYWGQGTQVTVST | high polyreactivity
29 | QVQLVESGGGLVQAGGSLRLSCAASGRTCRRYTIGWYRQAPGKERELVAAITSGGRTNYADSVKGRFTISRDNAKNTVYLQMNSLKPEDTAVYYCNAQNEIWRVTFSPYDRWGYDYWGQGTQVTVSS | low polyreactivity
30 | QVQVVESGGGIVQAGGSLGLSCAASGSNFSYNAMGWYRQAPRKERELVATISNTDSTNYADSVKGRFTISRDNAKNTVYLQMNSLKPEDTAVYYCAVVSARIDYEYWGQGTQVTVSS | low polyreactivity
31 | QVQLVESGGGLVQAGGSLRLSCAASGFIFYRYARGWYRQAPGKEREFVAAITRSAGGTYYADSVKGRFTISRDNAKNTVYLQMNSLKPEDTAVYYCAAVYRSGSRYYLGWYNYWGQGTQVTVSS | high polyreactivity
32 | QVQLVESGGGLVQAGGSLRLSCAASGSIFSVNAMGWYRQAPGKERELVASINFRGGRTYYADSVKGRFTISRDNAKNTVYLQMNSLKPEDTAVYYCAAVISQTDTGYGPSFRVYYWGQGTQVTVSS | high polyreactivity
33 | QVQLVESGGGLVQAGGSLRLSCAASGSIFTPYAMGWYRQAPGKERELVAAITYSGGSTYYADSVKGRFTISRDNAKNTVYLLMNSLKPEDTAVYYCAAYFNIYGLEYDYWGQGTQVTVSS | high polyreactivity
34 | QVQRVESGGGLGQAGGSLRLSCAASGIIFDYYAMGWYRQAPGNERELVAAITTSGGRTYYADSVKGRFTISRDNEKNTVYLQMNRLKPEDTAVYYCAASRPSPRPRDGYWGQGTQVTVSS | high polyreactivity
